Data published in US20050032221A1, “Dominant negative variants of methionine aminopeptidase 2 (MetAP2) and clinical uses thereof” (priority 2001, published 2005).

Columns and labels:
peptide substrate (MGMM) = experiment: MetAP activity assay of immunopurified HA-tagged yeast MetAP2 with Met-Gly-Met-Met; type: biochemical; conditions: immunopurified HA-tagged enzyme from map1Δ; 2 mM Met-Gly-Met-Met
Protocol: […]. Approximately 2 μg of purified wild-type MetAP2 (WT) and MetAP2 (H174A) was separated on a 10% SDS-PAGE gel and visualized with coomassie blue staining. Specific activity for the wild-type MetAP2 was 11±0.5 U/mg.
The purification of HA-tagged wild-type and mutant yeast MetAP2 from a yeast map1Δ strain (Klinkenberg et al., Arch. Biochem. Biophys. 347:193-200, 1997) was performed as previously described (Li and Chang, 1995) with slight modifications. A 1-liter yeast culture was grown aerobically at 30° C. in SG/Leu^− medium. Cells were collected at an OD600˜1-2 by centrifugation at 1500×g for 5 min. The pellet was rinsed with buffer XL (10 mM Hepes, pH 7.4; 1.5 mM MgCl2, 10% Glycerol [v/v]) plus 100 mM NaCl and fresh protease inhibitors (1 μg/ml aprotinin, 1 μg/ml leupeptin, 0.7 μg/ml pepstatin A, 1 mM phenylmethylsulfonyl fluoride). Cells were disrupted by vortexing (5 cycles of 1 min vortexing, 1 min on ice) with 0.5-mm acid-washed glass beads (Biospec Products, Inc.,). The lysate was then cleared at 10,000×g for 20 min at 4° C. Cleared lysate was applied to a Protein-Sepharose G column (Pharmacia) previously rinsed and pre-equilibrated with buffer XL and an anti-hemagglutinin epitope ([…]; SEQ ID NO:23) monoclonal antibody (BabCO). After loading, the column was washed with buffer XL until OD280<0.01. […]

yeast map1Δ strain = experiment: Yeast growth assay, map1Δ, expression under GAL1 promoter; type: cell-based, yeast (S. cerevisiae); conditions: galactose plates, 4 days at 30° C.
Protocol: A haploid yeast map1Δ strain was transformed to leucine prototrophy with p425GAL1/MAP2 wild-type (WT), p425GAL1/map2 (H174A), or p425GAL1 vector alone (V). Each strain was grown to mid-logarithmic phase at 30° C. in minimal synthetic raffinose medium lacking leucine. Approximately 2×10^5 cells (ABS600) were then streaked onto minimal synthetic plates lacking leucine and supplemented with (A) glucose or (B) galactose. Plates were incubated for 4 days at 30° C.
A haploid yeast map1Δ strain was transformed to leucine prototrophy with p425GAL1/MAP2 wild-type (WT), p425GAL1/map2 ([…]), p425GAL1/map2 (Δ2-57/H174A) or p425GAL1 vector alone (V). Each strain was grown to mid-logarithmic phase at 30° C. in minimal synthetic raffinose medium lacking leucine. […]
For relative growth comparison, strains were grown to mid-logarithmic phase in 5 ml of 2% raffinose minimal media lacking leucine and ˜2×10^5 cells (ABS600) were streaked onto SD/Leu^− or SG/Leu^− plates, then incubated for 4 days at 30° C. For quantitative comparison, a growth curve was obtained (FIG. 4). […] The ABS600 of each 1 mL culture was measured and diluted to an ABS600 of 0.2 in 5 mL of SG/Leu^−. Each 5 mL culture was then grown aerobically at 30° C. and the ABS600 was measured in triplicate at one-hour intervals.

B1: wild-type MetAP2: wild-type yeast MetAP2 with N-terminal hemagglutinin tag (SEQ ID NO:14) (protein, listed as Saccharomyces sp.)
chain: MTDAEIENSPASDLKELNLENEGVEQQDQAKADESDPVESKKKKNKKKKKKKSNVKKIELLFPDGKYPEGAWMDYHQDFNLQRTTDEESRYLKRDLERAEHWNDVRKGAEIHRRVRRAIKDRIVPGMKLMDIADMIENTTRKYTGAENLLAMEDPKSQGIGFPTGLSLNHCAAHFTPNAGDKTVLKYEDVMKVDYGVQVNGNIIDSAFTVSFDPQYDNLLAAVKDATYTGIKEAGIDVRLTDIGEAIQEVMESYEVEINGETYQVKPCRNLCGHSIAPYRIHGGKSVPIVKNGDTTKMEEGEHFAIETFGSTGRGYVTAGGEVSHYARSAEDHQVMPTLDSAKNLLKTIDRNFGTLPFCRRYLDRLGQEKYLFALNNLVRHGLVQDYPPLNDIPGSYTAQFEHTILLHAHKKEVVSKGDDYGKMRFQMASSLGIILL
modifications: N-terminal HA tag; Yeast MetAP2
Specific activity (peptide substrate (MGMM)): 11±0.5 U/mg
colony size / growth relative to map1Δ with vector alone (yeast map1Δ strain): largest observed
